Laboratory results published in patent EP0833843B1.
pKi: −log10 of the molar value.

Molecular target: MC1-R (melanocyte-stimulating hormone receptor)
Test: inhibition of MC1-R activation by the purified recombinant ASP preparation; assay details not given (Ollmann et al., in preparation)

Substance: Recombinant mouse agouti signal protein (ASP) (ligand)
- pKi: 9.66
